Experimental data published in the Human Domainome abundance scans (Beltran et al. 2025).
± gives the uncertainty stated by the source.

B1: Transcription elongation factor A N-terminal and central domain-containing protein, residues 30 to 77; numbered along this chain, Q8N8B7 (parent)
chain: LTELETIYVTKEHLQETDVVRAVYRVLKNCPSVALKKKAKCLLSKWKA

Variants of: B1
Assay: abundance fitness (aPCA) (normalised: wild type 0, dead -1); higher = more abundant; growth selection in yeast, the domain comes from the species named
Conditions: Homo sapiens

In order of rising abundance fitness:
1. W46D  -1.05 ± 0.21
2. L42P  -1.01 ± 0.35
3. K45I  -1.01 ± 0.4
4. C30E  -0.935 ± 0.17
5. K45G  -0.894 ± 0.12
6. R21L  -0.88 ± 0.12
7. L42N  -0.871 ± 0.26
8. R25W  -0.837 ± 0.19
9. A39D  -0.826 ± 0.19
10. R25P  -0.812 ± 0.18
11. V23H  -0.81 ± 0.21
12. E12L  -0.792 ± 0.096
13. W46Q  -0.792 ± 0.23
14. L42Q  -0.791 ± 0.25
15. T17Y  -0.784 ± 0.27
16. T10Y  -0.771 ± 0.22
17. L42S  -0.77 ± 0.12
18. E5R  -0.769 ± 0.1
19. R21D  -0.759 ± 0.27
20. W46R  -0.758 ± 0.12
21. K45E  -0.748 ± 0.13
22. K47A  -0.739 ± 0.17
23. L42Y  -0.737 ± 0.28
24. K28Q  -0.734 ± 0.16
25. E12I  -0.707 ± 0.15
26. H13V  -0.698 ± 0.094
27. S44I  -0.695 ± 0.28
28. T10L  -0.674 ± 0.14
29. K45P  -0.667 ± 0.42
30. E5P  -0.663 ± 0.15
31. T17Q  -0.649 ± 0.18
32. C30Y  -0.632 ± 0.1
33. E5Y  -0.604 ± 0.25
34. R21Y  -0.601 ± 0.28
35. A39G  -0.576 ± 0.064
36. K37T  -0.574 ± 0.1
37. V23K  -0.573 ± 0.1
38. T10C  -0.566 ± 0.18
39. V20E  -0.561 ± 0.18
40. L1W  -0.554 ± 0.18
41. A39H  -0.553 ± 0.27
42. R21W  -0.549 ± 0.14
43. T10F  -0.547 ± 0.22
44. R25T  -0.528 ± 0.13
45. R21P  -0.514 ± 0.15
46. K45L  -0.513 ± 0.13
47. L4C  -0.51 ± 0.095
48. L1S  -0.501 ± 0.31
49. E5Q  -0.498 ± 0.18
50. E12A  -0.492 ± 0.099
51. E5I  -0.48 ± 0.12
52. A48W  -0.469 ± 0.26
53. N29Y  -0.466 ± 0.14
54. E3T  -0.464 ± 0.15
55. T2M  -0.461 ± 0.16
56. R21A  -0.457 ± 0.13
57. V23A  -0.453 ± 0.091
58. E5V  -0.446 ± 0.1
59. K28N  -0.445 ± 0.14
60. K28H  -0.435 ± 0.13
61. A22I  -0.419 ± 0.2
62. R21T  -0.413 ± 0.15
63. S44Y  -0.398 ± 0.21
64. K28P  -0.379 ± 0.13
65. L1V  -0.379 ± 0.14
66. R25K  -0.364 ± 0.11
67. P31E  -0.357 ± 0.073
68. L42V  -0.354 ± 0.086
69. Q15L  -0.352 ± 0.084
70. K47T  -0.351 ± 0.22
71. K37S  -0.346 ± 0.092
72. A48H  -0.331 ± 0.23
73. L4Y  -0.325 ± 0.12
74. I7F  -0.323 ± 0.17
75. W46C  -0.313 ± 0.12
76. E5L  -0.28 ± 0.08
77. K47H  -0.268 ± 0.16
78. K38Y  -0.265 ± 0.18
79. N29Q  -0.259 ± 0.15
80. K38W  -0.252 ± 0.12
81. E12P  -0.25 ± 0.17
82. E12R  -0.24 ± 0.079
83. K28L  -0.237 ± 0.077
84. S44W  -0.237 ± 0.13
85. E5A  -0.235 ± 0.12
86. C41M  -0.232 ± 0.18
87. A22D  -0.209 ± 0.095
88. Q15S  -0.208 ± 0.083
89. V33E  -0.208 ± 0.093
90. E3Y  -0.207 ± 0.16
91. C41I  -0.202 ± 0.47
92. E3K  -0.195 ± 0.12
93. K38F  -0.193 ± 0.31
94. E5D  -0.186 ± 0.12
95. C41D  -0.182 ± 0.18
96. V9C  -0.172 ± 0.1
97. V26L  -0.172 ± 0.088
98. V26N  -0.152 ± 0.12
99. V26K  -0.149 ± 0.22
100. E3S  -0.149 ± 0.11
101. K28V  -0.142 ± 0.073
102. H13M  -0.133 ± 0.084
103. K45R  -0.123 ± 0.11
104. V23T  -0.122 ± 0.11
105. A22L  -0.119 ± 0.074
106. V20G  -0.109 ± 0.086
107. T17C  -0.103 ± 0.11
108. E3V  -0.102 ± 0.081
109. V9M  -0.098 ± 0.12
110. V33W  -0.096 ± 0.08
111. T17G  -0.092 ± 0.072
112. N29A  -0.086 ± 0.08
113. T2Y  -0.078 ± 0.18
114. T6R  -0.074 ± 0.068
115. E12T  -0.068 ± 0.1
116. A22M  -0.053 ± 0.1
117. R25Q  -0.038 ± 0.27
118. E16C  -0.03 ± 0.13
119. N29K  -0.029 ± 0.11
120. K11G  -0.022 ± 0.066
121. A39M  -0.016 ± 0.12
122. V33A  -0.016 ± 0.081
123. E16G  -0.008 ± 0.084
124. E16Y  -0.004 ± 0.12
125. L1F  -0.001 ± 0.25
126. N29C  0 ± 0.11
127. C41F  0.005 ± 0.22
128. I7V  0.006 ± 0.072
129. S44R  0.021 ± 0.086
130. K37R  0.023 ± 0.065
131. C30M  0.035 ± 0.12
132. S32P  0.039 ± 0.1
133. K28W  0.04 ± 0.092
134. C41L  0.047 ± 0.097
135. V9G  0.061 ± 0.072
136. Q15W  0.069 ± 0.096
137. C30L  0.075 ± 0.086
138. V9S  0.085 ± 0.085
139. C41S  0.093 ± 0.11
140. T6D  0.094 ± 0.1
141. P31A  0.119 ± 0.065
142. T6S  0.12 ± 0.082
143. V33P  0.129 ± 0.11
144. I7A  0.131 ± 0.076
145. L4E  0.173 ± 0.072
146. P31R  0.188 ± 0.062
147. I7T  0.192 ± 0.11
148. A39I  0.2 ± 0.18
149. I7D  0.203 ± 0.087
150. V26R  0.211 ± 0.079
151. S32F  0.211 ± 0.13
152. L1M  0.235 ± 0.39
153. A22W  0.256 ± 0.076
154. V9Q  0.265 ± 0.096
155. S32I  0.27 ± 0.13
156. V26T  0.279 ± 0.12
157. L4P  0.279 ± 0.11
158. P31K  0.291 ± 0.092
159. C41Q  0.293 ± 0.14
160. P31G  0.298 ± 0.06
161. I7E  0.3 ± 0.085
162. P31V  0.337 ± 0.062
163. P31L  0.355 ± 0.063
164. S32L  0.355 ± 0.089
165. P31I  0.371 ± 0.085
166. P31W  0.382 ± 0.075
167. P31M  0.457 ± 0.08
